Laboratory results: PMC3929611, “Generation of Recombinant Antibodies to Rat GABAA Receptor Subunits by Affinity Selection on Synthetic Peptides” (PLoS ONE, 2014)
Primed or numbered codes have the meaning given here. Ends that are not written are not given here. * marks the point of attachment. Biotin = O=C1N[C@H]2[C@H](CS[C@H]2CCCCC(=O)*)N1; FITC′ = fluorescein isothiocyanate

Tests used:
[1] = target: T1, α1β2γ2 GABAA receptor expressed in Xenopus laevis oocytes (rat α1, rat β2 and human γ2 subunit sequences) (Rattus norvegicus (alpha1, beta2); Homo …, UniProt P62813;P63138;P18507); assay: immunostaining of cells or tissue; Xenopus oocytes expressing α1β2γ2 GABAA receptors or non-expressing, blocked with 10% fetal bovine serum, incubated with scFv overnight at 16°C, detected with FITC-conjugated M2 anti-Flag, confocal microscopy; conditions: one partner purified
T1 construct: GABAA receptor subunit α1, rat; GABAA receptor subunit β2, rat; GABAA receptor subunit γ2, human; also called intact GABAA receptor; GABAA receptors heterologously expressed by Xenopus laevis oocytes; source: Xenopus laevis oocytes injected with mRNA of each subunit, on the oocyte surface; copies: + +

FITC-labeled β2 peptide = target: T2, FITC-labeled β2 peptide (Rattus norvegicus (paper: rat/human)); assay: fluorescence polarisation; 6 µM FITC-α1 peptide or 4 µM FITC-β2 peptide with varying scFv (0-35 µM; G11 0-10 µM) or A10 scFv-Fc (0-1 µM) in PBS + 200 mM imidazole, overnight at 4°C or 2 h at RT; conditions: both partners purified
T2 construct: GABAA receptor subunit β2, rat/human, residues 1-19; also called FITC-conjugated target peptide (β2); source: synthetic peptide, HPLC purified
T2 chain: {FITC′}-MWRVRKRGYFGIWSFPLII

[2] = target: T3, biotinylated β2 peptide (GABAA receptor β2 subunit peptide) (Rattus norvegicus (paper: rat/human), biotin at the N-terminus; C-terminal amide); assay: SRU BIND Reader (label-free plate-based biosensor); biotinylated peptides (10 µg/mL) captured on streptavidin-coated BIND plates, blocked with PBST + 5% BSA, scFvs (0.008-17.5 µM) added in elution buffer, 1 h at RT; shift of peak wavelength against concentration; conditions: both partners purified
T3 construct: Serine-Glycine-Serine linker between the N-terminal biotin and the peptide; GABAA receptor subunit β2, rat/human, residues 1-19; also called beta 2; source: synthetic peptide
T3 chain: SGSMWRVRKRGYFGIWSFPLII

FITC-labeled α1 peptide = target: T4, FITC-labeled α1 peptide (Rattus norvegicus); assay: fluorescence polarisation; 6 µM FITC-α1 peptide or 4 µM FITC-β2 peptide with varying scFv (0-35 µM; G11 0-10 µM) or A10 scFv-Fc (0-1 µM) in PBS + 200 mM imidazole, overnight at 4°C or 2 h at RT; conditions: both partners purified
T4 construct: GABAA receptor subunit α1, rat, residues 1-15; also called FITC-conjugated target peptide (α1); source: synthetic peptide, HPLC purified
T4 chain: {FITC′}-QPSQDELKDNTTVFT

[3] = target: T5, biotinylated α1 peptide (GABAA receptor α1 subunit peptide) (Rattus norvegicus, SMILES …); assay: SRU BIND Reader (label-free plate-based biosensor); biotinylated peptides (10 µg/mL) captured on streptavidin-coated BIND plates, blocked with PBST + 5% BSA, scFvs (0.008-17.5 µM) added in elution buffer, 1 h at RT; shift of peak wavelength against concentration; conditions: both partners purified
T5 construct: Serine-Glycine-Serine linker between the N-terminal biotin and the peptide; GABAA receptor subunit α1, rat, residues 1-15; also called alpha 1; source: synthetic peptide
T5 chain: Biotin-SGSQPSQDELKDNTTVFT-NH2

[4] = target: T6, MBP-α1 peptide fusion protein (Rattus norvegicus); assay: far-Western, overlay or dot blot; dot blot; 1 µg to 0.0075 µg MBP-fusion protein adsorbed on PVDF membrane, about 10 nM A10 scFv or A10 scFv-Fc overnight at 4°C, detected with α-Flag-800CW; conditions: both partners purified
T6 construct: GABAA receptor subunit α1, rat, residues 1-15, inserted at the C-terminus of the MBP gene in pAT224; also called MBP-fusion protein; source: E. coli, purified (His60 Ni Superflow resin); not shown: MBP, N-terminal, kept
T6 chain: QPSQDELKDNTTVFT

[5] = target: T7, GABAA receptor α1 subunit, native, in mouse retina (Mus musculus C57BL/6J, UniProt P62812); assay: immunostaining of cells or tissue; 16 µm cryosections of paraformaldehyde-fixed mouse retina, biotinylated scFv, detected with Cy5-conjugated streptavidin, confocal microscopy; conditions: one partner purified
T7 construct: GABAA receptor subunit α1, mouse, within native receptors of the retina; Tissue fixed in 4% paraformaldehyde; also called native GABAA receptors in the mouse retina; source: endogenous, C57BL/6J mouse retina, fixed cryosections
T7 sequence (P62812 28-455): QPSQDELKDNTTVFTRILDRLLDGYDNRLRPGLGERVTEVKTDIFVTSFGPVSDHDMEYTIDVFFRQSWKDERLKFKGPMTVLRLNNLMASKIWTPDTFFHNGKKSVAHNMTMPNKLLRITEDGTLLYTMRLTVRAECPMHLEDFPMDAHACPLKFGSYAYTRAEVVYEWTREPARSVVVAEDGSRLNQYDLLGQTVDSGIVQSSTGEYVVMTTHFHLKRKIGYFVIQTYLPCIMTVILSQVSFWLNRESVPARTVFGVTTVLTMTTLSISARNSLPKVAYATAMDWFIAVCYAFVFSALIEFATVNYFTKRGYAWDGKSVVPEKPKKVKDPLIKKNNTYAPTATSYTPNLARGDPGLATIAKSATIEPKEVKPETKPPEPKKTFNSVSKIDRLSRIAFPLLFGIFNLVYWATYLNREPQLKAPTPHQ

T1 sequence (P62813 28-455, chain 1 of 3): as the sequence (P62812 28-455) above
T1 sequence (P63138 26-474, chain 2 of 3): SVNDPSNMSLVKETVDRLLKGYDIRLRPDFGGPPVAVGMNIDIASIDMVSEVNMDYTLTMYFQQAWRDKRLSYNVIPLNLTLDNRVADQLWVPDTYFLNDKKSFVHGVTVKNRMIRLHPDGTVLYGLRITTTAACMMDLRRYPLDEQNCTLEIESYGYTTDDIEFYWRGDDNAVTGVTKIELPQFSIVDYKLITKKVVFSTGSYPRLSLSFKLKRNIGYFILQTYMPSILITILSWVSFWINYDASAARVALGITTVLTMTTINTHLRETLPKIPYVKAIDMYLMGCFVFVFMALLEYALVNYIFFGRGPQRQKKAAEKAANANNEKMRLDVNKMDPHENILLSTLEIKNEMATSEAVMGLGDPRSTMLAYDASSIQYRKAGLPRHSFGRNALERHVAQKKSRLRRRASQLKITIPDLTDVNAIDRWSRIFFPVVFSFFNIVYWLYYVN
T1 sequence (P18507 40-475, chain 3 of 3): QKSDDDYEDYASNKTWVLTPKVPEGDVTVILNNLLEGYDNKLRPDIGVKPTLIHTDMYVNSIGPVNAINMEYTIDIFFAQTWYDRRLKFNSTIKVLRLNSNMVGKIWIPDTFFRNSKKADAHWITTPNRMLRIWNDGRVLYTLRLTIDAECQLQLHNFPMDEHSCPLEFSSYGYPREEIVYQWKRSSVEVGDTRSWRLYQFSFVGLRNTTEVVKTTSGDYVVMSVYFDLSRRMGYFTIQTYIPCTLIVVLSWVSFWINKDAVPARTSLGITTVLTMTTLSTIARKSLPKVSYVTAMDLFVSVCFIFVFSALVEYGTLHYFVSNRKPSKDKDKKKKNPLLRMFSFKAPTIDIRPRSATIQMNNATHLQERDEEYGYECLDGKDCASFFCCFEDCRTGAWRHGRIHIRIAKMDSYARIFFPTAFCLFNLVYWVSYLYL

B1: G8 scFv (anti-β2 subunit scFv), soluble protein (scFv, V domains shown)
VH: EVQLVQSGAEVKKPGATVKISCKVSGYTFTDYYMHWVQQAPGKGLEWMGLVDPEDGETIYAEKFQGRVTITADTSTDTAYMELSSLRSEDTAVYYCATTPPHDYYDSSGLDYWGQGTLVTVSS
VL: DIQMTQSPSSVSASVGDRVTITCRASQGINRWLAWYQQKPGKAPKLLIYAASNLQSGVPSRFSGSGSGTDFSLTISSLQPEDFATYYCQQSYSPPSTFGGGTKLEIK
notes: human scFv from a naive phage-display library, order VH-linker-VL; source: P. pastoris X33, secreted, purified (Ni-NTA)
- binding result [1]: binds
- Kd (FITC-labeled β2 peptide): 970 nM
- Kd [2]: 1600 nM

B2: A10 scFv (anti-α1 subunit-specific scFv), soluble protein (scFv, V domains shown)
VH: EVQLVQSGAEVKKPGASVKVSCKASGYTFTSYYMHWVRQAPGQGLEWMGIINPSGGSTSYAQKFQGRVTMTRDTSTSTVYMELSSLRSEDTAVYYCARDGWGGSSFLDYWGQGTLVTVSS
VL: SYELTQPPSVSVSPGQTARITCSGDALPKKYAYWYQQKSGQAPVLVIYEDSKRPSGIPERFSGSSSGTMATLTISGAQVEDEADYYCYSKDNTGYQMVFGGGTKLTVL
notes: human scFv from a naive phage-display library, order VL-linker-VH; also called scFv A10; anti-α1 scFv; source: P. pastoris X33, secreted, purified (Ni-NTA)
- binding result [1]: binds
- Kd (FITC-labeled α1 peptide): 3500 nM
- Kd [3]: 2400 nM

B3: A10 scFv-Fc (dimeric scFv-Fc version of A10) (Fc fusion, human)
VH: B2 VH
VL: B2 VL
notes: as the scFv of m1; order VL-linker-VH; also called A10-Fc; scFv-Fc A10; source: FreeStyle 293F cells, transiently transfected, secreted, purified (His60 Ni Superflow resin); not shown: Fc (human IgG), C-terminal, kept; 3x Flag, C-terminal, kept
- Kd (FITC-labeled α1 peptide): 26 nM
- fold increase in dot-blot sensitivity over the scFv [4]: ~10 fold

B4: A10 scFv, biotinylated in vitro (scFv, V domains shown)
VH: B2 VH
VL: B2 VL
notes: as the scFv of m1; order VL-linker-VH; The same protein as m1, chemically biotinylated for staining of retinal cryosections; also called α1-specific scFv; source: P. pastoris X33, secreted, purified (Ni-NTA)
- binding result [5]: binds
